Results: the supplement of paper PMC10567573

B1: ZMYND11 (parent)
chain: YCSIKCQQEHWHAEHKRTCRRKR

Variants of: B1
Test: protein stability index of a GFP-peptide fusion (GPS, HEK-293T) (PSI 1-6); higher = more stable
Settings: c terminus: native
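Further: lentivirally expressed fusions sorted by FACS into six bins by GFP to DsRed ratio, PSI derived from sequencing read proportions per bin multiplied by bin number.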

Point of comparison: YCSIKCQQEHWHAEHKRTLRRKR [C19L], protein stability index 2.83. Against it:
- YCSIKCQQEHWHAEHKRTERRKR [C19E] — lower, 2.75
- YCSIKCQQEHWHAEHKRTHRRKR [C19H] — lower, 2.71
- YCSIKCQQEHWHAEHKRTARRKR [C19A] — higher, 2.84
- YCSIKCQQEHWHAEHKRTGRRKR [C19G] — lower, 2.71
- YCSIKCQQEHWHAEHKRTDRRKR [C19D] — higher, 3.46
- YCSIKCQQEHWHAEHKRTQRRKR [C19Q] — lower, 2.19
- YCSIKCQQEHWHAEHKRTVRRKR [C19V] — lower, 2.48
- YCSIKCQQEHWHAEHKRTMRRKR [C19M] — lower, 2.41
- YCSIKCQQEHWHAEHKRTIRRKR [C19I] — lower, 2.72
- YCSIKCQQEHWHAEHKRTSRRKR [C19S] — lower, 2.82
- YCSIKCQQEHWHAEHKRTTRRKR [C19T] — lower, 2.77
- YCSIKCQQEHWHAEHKRTFRRKR [C19F] — lower, 2.24
- YCSIKCQQEHWHAEHKRTPRRKR [C19P] — higher, 3.4
- YCSIKCQQEHWHAEHKRTKRRKR [C19K] — lower, 2.3
- YCSIKCQQEHWHAEHKRTRRRKR [C19R] — lower, 2.76
- YCSIKCQQEHWHAEHKRTWRRKR [C19W] — lower, 1.98
- YCSIKCQQEHWHAEHKRTNRRKR [C19N] — lower, 2.21
- YCSIKCQQEHWHAEHKRTYRRKR [C19Y] — higher, 3.63
- YCSIKCQQEHWHAEHKRTCRRKS [R23S] — lower, 2.64
- YCSIKCQQEHWHAEHKRTCRRKM [R23M] — lower, 2.15
- YCSIKCQQEHWHAEHKRTCRRKV [R23V] — lower, 1.26
- YCSIKCQQEHWHAEHKRTCRRKD [R23D] — lower, 1.86
- YCSIKCQQEHWHAEHKRTCRRKN [R23N] — lower, 2.09
- YCSIKCQQEHWHAEHKRTCRRKC [R23C] — lower, 2.04
- YCSIKCQQEHWHAEHKRTCRRKP [R23P] — higher, 3.21
- YCSIKCQQEHWHAEHKRTCRRKF [R23F] — lower, 1.58
- YCSIKCQQEHWHAEHKRTCRRKK [R23K] — lower, 2.11
- YCSIKCQQEHWHAEHKRTCRRKE [R23E] — lower, 2.77
- YCSIKCQQEHWHAEHKRTCRRKA [R23A] — lower, 2.28
- YCSIKCQQEHWHAEHKRTCRRKW [R23W] — higher, 4.23
- YCSIKCQQEHWHAEHKRTCRRKQ [R23Q] — higher, 3.2
- YCSIKCQQEHWHAEHKRTCRRKT [R23T] — lower, 2.26
- YCSIKCQQEHWHAEHKRTCRRKY [R23Y] — lower, 1.41
- YCSIKCQQEHWHAEHKRTCRRKL [R23L] — lower, 2.2
- YCSIKCQQEHWHAEHKRTCRRKH [R23H] — lower, 2.26
- YCSIKCQQEHWHAEHKRTCRRKG [R23G] — higher, 5.07
- YCSIKCQQEHWHAEHKRTCRRAR [K22A] — lower, 1.83
- YCSIKCQQEHWHAEHKRTCRRTR [K22T] — lower, 1.91
- YCSIKCQQEHWHAEHKRTCRRER [K22E] — lower, 2.41
- YCSIKCQQEHWHAEHKRTCRRDR [K22D] — lower, 1.85
- YCSIKCQQEHWHAEHKRTCRRGR [K22G] — lower, 2.33
- YCSIKCQQEHWHAEHKRTCRRMR [K22M] — lower, 1.55
- YCSIKCQQEHWHAEHKRTCRRWR [K22W] — higher, 2.97
- YCSIKCQQEHWHAEHKRTCRRCR [K22C] — lower, 2.6
- YCSIKCQQEHWHAEHKRTCRRYR [K22Y] — lower, 1.53
- YCSIKCQQEHWHAEHKRTCRRSR [K22S] — higher, 3.04
- YCSIKCQQEHWHAEHKRTCRRHR [K22H] — lower, 1.74
- YCSIKCQQEHWHAEHKRTCRRNR [K22N] — lower, 1.37
- YCSIKCQQEHWHAEHKRTCRRRR [K22R] — lower, 1.79
- YCSIKCQQEHWHAEHKRTCRRIR [K22I] — lower, 2.37
- YCSIKCQQEHWHAEHKRTCRRVR [K22V] — lower, 2.15
- YCSIKCQQEHWHAEHKRTCRRFR [K22F] — lower, 2.13
- YCSIKCQQEHWHAEHKRTCRRLR [K22L] — lower, 2.02
- YCSIKCQQEHWHAEHKRTCRRPR [K22P] — lower, 1.94
- YCSIKCQQEHWHAEHKRTCRRQR [K22Q] — lower, 2.64
- YCSIKCQQEHWHAEHKRTCVRKR [R20V] — lower, 2.8
- YCSIKCQQEHWHAEHKRTCPRKR [R20P] — lower, 1.89
- YCSIKCQQEHWHAEHKRTCQRKR [R20Q] — lower, 1.51
- YCSIKCQQEHWHAEHKRTCTRKR [R20T] — higher, 3.02
- YCSIKCQQEHWHAEHKRTCSRKR [R20S] — lower, 1.99
- YCSIKCQQEHWHAEHKRTCCRKR [R20C] — lower, 2
- YCSIKCQQEHWHAEHKRTCIRKR [R20I] — lower, 1.35
- YCSIKCQQEHWHAEHKRTCLRKR [R20L] — lower, 2.17
- YCSIKCQQEHWHAEHKRTCDRKR [R20D] — lower, 1.76
- YCSIKCQQEHWHAEHKRTCARKR [R20A] — lower, 2.33
- YCSIKCQQEHWHAEHKRTCHRKR [R20H] — lower, 2.2
- YCSIKCQQEHWHAEHKRTCGRKR [R20G] — lower, 2.65
- YCSIKCQQEHWHAEHKRTCNRKR [R20N] — lower, 2.02
- YCSIKCQQEHWHAEHKRTCKRKR [R20K] — lower, 1.72
- YCSIKCQQEHWHAEHKRTCWRKR [R20W] — lower, 1.98
- YCSIKCQQEHWHAEHKRTCFRKR [R20F] — higher, 3.4
- YCSIKCQQEHWHAEHKRTCYRKR [R20Y] — lower, 2.28
- YCSIKCQQEHWHAEHKRTCRHKR [R21H] — lower, 1.97
- YCSIKCQQEHWHAEHKRTCRSKR [R21S] — higher, 3.06
- YCSIKCQQEHWHAEHKRTCRWKR [R21W] — lower, 1.94
- YCSIKCQQEHWHAEHKRTCRCKR [R21C] — lower, 2.15
- YCSIKCQQEHWHAEHKRTCRAKR [R21A] — lower, 2.2
- YCSIKCQQEHWHAEHKRTCRLKR [R21L] — lower, 2.2
- YCSIKCQQEHWHAEHKRTCRVKR [R21V] — lower, 2.61
- YCSIKCQQEHWHAEHKRTCRDKR [R21D] — lower, 1.96
- YCSIKCQQEHWHAEHKRTCRMKR [R21M] — lower, 2.4
- YCSIKCQQEHWHAEHKRTCRYKR [R21Y] — lower, 2.2
- YCSIKCQQEHWHAEHKRTCRPKR [R21P] — lower, 1.52
- YCSIKCQQEHWHAEHKRTCRFKR [R21F] — lower, 2.45
- YCSIKCQQEHWHAEHKRTCRTKR [R21T] — lower, 2.41
- YCSIKCQQEHWHAEHKRTCRIKR [R21I] — higher, 2.99
- YCSIKCQQEHWHAEHKRTCRNKR [R21N] — lower, 1.98
- YCSIKCQQEHWHAEHKRTCRKKR [R21K] — higher, 2.92
- YCSIKCQQEHWHAEHKRTCRQKR [R21Q] — lower, 2.04
- YCSIKCQQEHWHAEHKRTCRGKR [R21G] — higher, 2.84
- YCSIKCQQEHWHAEHKRTCREKR [R21E] — lower, 2.43
- YCSIKCQQEHWHAEHKRYCRRKR [T18Y] — lower, 2.45
